Assay results: paper PMC2680354 (Molecular cell, 2008)

B1: cortactin NtA (peptide)
chain: MWKASAGHAVSITQDDGGADDWETDPDFVNDVSEKEQRWGAKTVQGSGHQEHINIHKLRENVFQEHQTLKEKELETGPKASHGY
B2: chemically crosslinked WASP VCA (xlWASP VCA) (other)
chain: GGRGALLDQIRQGIQLNKTPGAPESSALQPPPQSSEGLVGALMHVMQKRSRAIHSSDEGEDQAGDEDEDDEWDD
modifications: chemically crosslinked to the second copy (crosslinker and site not shown)

Molecular target: Arp2/3 complex (UniProt P61158 1-418)
Assay: fluorescence polarisation

Row | Binder | Kd [nM]
1 | B1 | 17
2 | B2 | 70
